Source: patent US6096512A, “Cloned DNA encoding a UDP-GalNAc: Polypeptide, N-acetylgalactosaminyltransferase” (Pharmacia & Upjohn Company, priority 1997, dated 2000)
“Also recorded” adds a separate entry of the source.

Legend:
[1] = target: T1, bovine colostrum GalNAc-transferase (Bos taurus, UniProt Q07537); assay: Transfer of N-acetylgalactosamine to protein acceptors by bovine colostrum GalNAc-transferase; type: biochemical; settings: for Product formed, native acceptor / Product formed, reduced and carboxymethylated acceptor: acceptor 65 μM, enzyme approximately 65 mU/ml, 60 minutes; for Product formed, reduced and carboxymethylated acceptor: myelin basic protein was not reduced and carboxymethylated; for acceptor activity in words: native or reduced and carboxymethylated
T1 sequence (Q07537 41-559): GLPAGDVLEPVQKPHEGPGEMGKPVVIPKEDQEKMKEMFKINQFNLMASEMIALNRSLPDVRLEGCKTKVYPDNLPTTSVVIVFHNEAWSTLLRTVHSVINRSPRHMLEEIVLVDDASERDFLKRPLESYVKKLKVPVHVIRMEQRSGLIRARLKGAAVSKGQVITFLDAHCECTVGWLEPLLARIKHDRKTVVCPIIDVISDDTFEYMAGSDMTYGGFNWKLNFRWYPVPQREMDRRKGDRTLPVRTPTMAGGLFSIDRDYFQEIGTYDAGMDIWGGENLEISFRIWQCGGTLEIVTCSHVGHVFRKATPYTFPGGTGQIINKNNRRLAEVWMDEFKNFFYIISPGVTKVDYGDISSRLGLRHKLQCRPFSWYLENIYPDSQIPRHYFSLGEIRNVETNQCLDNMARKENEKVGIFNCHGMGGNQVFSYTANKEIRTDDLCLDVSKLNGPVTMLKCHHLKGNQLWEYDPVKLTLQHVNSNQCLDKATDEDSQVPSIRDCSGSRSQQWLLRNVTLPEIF
Description: (§1) The standard assay for UDP-GalNAc:polypeptide, N-acetylgalactosaminyltransferase activity during purification contained the following components in a final volume of 80 μl: 50 mM Imidazole pH 7.2, 10 mM MnCl2, 0.5% Triton X-100, 15 μM UDP-GalNAc, UDP[1-^3 H-] GalNAc (27,000 cpm/assay), 0.15 mg/ml apomucin and varying amounts of enzyme (see individual experiments). The reaction mixture is incubated at 37° C. for 5-10 minutes (see individual experiments) and the reaction product is TCA precipitated and radioactivity measured as described. Assays for activity in lysates from Spodoptera frugiperda cell line 9 (hereinafter referred to as Sf9 cells) are carried out as described by Thomsen et al., (1990).
The above conclusions and the predictions of the specificity algorithm are validated experimentally by studying the ability of bovine colostrum GalNAc-transferase to transfer N-acetylgalactosamine to a variety of acceptors, both native proteins and synthetic acceptor peptides. The transfer of N-acetylgalactosamine to protein acceptors is assayed as described by Elhammer and Kornfeld, 1986, with minor modifications. The concentration of UDP-GalNAc is saturating in all assays; a Km of 8 μM is reported for bovine colostrum GalNAc-transferase (Elhammer and Kornfeld, 1986).
The transfer of N-acetylgalactosamine to protein acceptors was assayed
under standard conditions (see Material and Methods). The acceptor
concentration was 65 μM, the enzyme concentration approximately
65 mU/ml and assay time was 60 minutes. The transfer to both native and
reduced-carboxymethylated acceptors was assayed.

[2] = tested on: GalNAc-transferase activity in Sf9 cells; assay: Expression of baculovirus isolates of soluble GalNAc-transferase in Sf9 cells, total activity; type: cell-based, Spodoptera frugiperda; settings: for Total activity, cell lysate / Total activity, culture medium: 65 hours post infection; for Total activity, cell lysate: 1X10^6 cells; for Total activity, culture medium: culture medium volume 5 ml
Description: GalNAcTs was routinely expressed in one liter batches. Approximately 1×10^9 cells in one liter Grace's serum-free insect medium (Insect Express) were infected with 5 pfu/cell of GalNAcTs-Mel. The infected cells were cultured in shaker flasks for 65 hours before harvest.
^a 1 unit equals one mole Nacetylgalactosamine transferred to apomuci
per minute, under assay conditions.
Cells (1X10^6) were infected with recombinant virus containing GalNAcTs-Mel (5 pfu/cell). The cells were harvestd 65 hours post infrction, lysed in a detergent containing buffer and the GalNac-transferase activity was determined in the cell lysates and the corresponding culture media; lysate and culture medium from uninfected cells were assayed as control. The numbers have been adjusted for differences in protein content in the cell lysates; the volume of the culture media was 5 ml.

[3] = tested on: GalNAc-transferase activity in Sf9 cells; assay: Expression of baculovirus isolates of the GalNAc-transferase in Sf9 cells, GalNAcT activity; type: cell-based, Spodoptera frugiperda; settings: for Specific activity: Sf9 cell lysates, 48 hours post infection; for Relative rate: relative to uninfected cells
Description: as §1
The putative GalNAcT coding region, pCR1000-91B, is digested with SstII and HindIII (both enzymes cut only in pCR1000 sequences that flank the insert; FIG. 2C) and these sites are blunted using T4 DNA polymerase so that it can be cloned into a baculovirus expression vector. BamHI linkers are then ligated onto the blunted ends and the resulting sample is ligated into the BamHI site of the baculovirus expression vector pAC373 (Summers and Smith, 1986). The resulting isolates are screened for proper orientation of the GalNAcT open reading frame with respect to the baculovirus polyhedron promoter, to yield pAC373-GalNAcT. Cotransfection of Sf9 cells with pAC373-GaINAcT and linearized baculovirus DNA from PharMingen's baculoGold transfection kit is performed using calcium phosphate precipitation (Summers & Smith, 1986). The baculovirus DNA provided in the PharMingen transfection kit contains a lethal mutation that can be corrected by homologous recombination with sequences contained in the pAC373 vector. Therefore, following transfection, only recombinant viruses will grow on Sf9 cells. Transfections are done in duplicate and the resulting virus samples are referred to as GalNAcT 2-1A and GaINAcT 2-1B. Cells are harvested 48 hours post infection and lysed in a detergent containing buffer. Following sedimentation of undissolved material, the cleared lysates are assayed for GalNAcT activity. Lysates from uninfected cells or from cells infected with either a baculovirus containing an unrelated gene, CMV-POL (human cytomegalovirus DNA polymerase gene), or two separate baculovirus isolates of the GaINAcT gene, GalNAcT 2-1A and GaINAcT 2-1B, are assayed.

B1: Bovine rhodanese: cytoplasmic protein containing three strong predicted glycosylation sites (protein)
chain: VHQVLYRALVSTKWLAESVRAGKVGPGLRVLDASWYSPGTREARKEYLERHVPGASFFDIEECRDKASPYEVMLPSEAGFADYVGSLGISNDTHVVVYDGDDLGSFYAPRVWWMFRVFGHRTVSVLNGGFRNWLKEGHPVTSEPSRPEPAIFKATLNRSLLKTYEQVLENLESKRFQLVDSRAQGRYLGTQPEPDAVGLDSGHIRGSVNMPFMNFLTEDGFEKSPEELRAMFEAKKVDLTKPLIATCRKGVTACHIALAAYLCGKPDVAIYDGSWFEWFHRAPPETWVSQGKGGKA
[1]
  Product formed, native acceptor: < 0.1 nmol/min/mg
  Product formed, reduced and carboxymethylated acceptor: 3.3 nmol/min/mg
[1]; listed as bovine rhodanese
  acceptor activity in words: neither of them reacts unless reduced and carboxymethylated
[1]; listed as rhodanese
  acceptor activity in words: neither subtilisin nor rhodanese showed any acceptor activity without prior reduction and carboxymethylation

B2: Subtilisin: bacterial protein produced by a microbial system incapable of O-linked oligosaccharide biosynthesis (protein, UniProt P00782 108-382, looked up)
Subtilisin BPN': AQSVPYGVSQIKAPALHSQGYTGSNVKVAVIDSGIDSSHPDLKVAGGASMVPSETNPFQDNNSHGTHVAGTVAALNNSIGVLGVAPSASLYAVKVLGADGSGQYSWIINGIEWAIANNMDVINMSLGGPSGSAALKAAVDKAVASGVVVVAAAGNEGTSGSSSTVGYPGKYPSVIAVGAVDSSNQRASFSSVGPELDVMAPGVSIQSTLPGNKYGAYNGTSMASPHVAGAAALILSKHPNWTNTQVRSSLENTTTKLGDSFYYGKGLINVQAAAQ
[1]
  Product formed, native acceptor: < 0.1 nmol/min/mg
  Product formed, reduced and carboxymethylated acceptor: 0.6 nmol/min/mg
  acceptor activity in words: neither of them reacts unless reduced and carboxymethylated; also recorded: neither subtilisin nor rhodanese showed any acceptor activity without prior reduction and carboxymethylation
[1]; denatured subtilisin vs myelin basic protein
  transfer rate slower than to myelin basic protein: 35 times

B3: GalNAcT-Mel: recombinant baculovirus that expresses a secreted form of GalNAc-transferase with honeybee melittin signal peptide (protein)
chain: DPSPALEPVQKPHEGPGEMGKPVVIPKEDQEKMKEMFKINQFNLMASEMIALNRSLPDVRLEGCKTKVYPDNLPTTSVVIVFHNEAWSTLLRTVHSVINRSPRHMLEEIVLVDDASERDFLKRPLESYVKKLKVPVHVIRMEQRSGLIRARLKGAAVSKGQVITFLDAHCECTVGWLEPLLARIKHDRKTVVCPIIDVISDDTFEYMAGSDMTYGGFNWKLNFRWYPVPQREMDRRKGDRTLPVRTPTMAGGLFSIDRDYFQEIGTYDAGMDIWGGENLEISFRIWQCGGTLEIVTCSHVGHVFRKATPYTFPGGTGQIINKNNRRLAEVWMDEFKNFFYIISPGVTKVDYGDISSRLGLRHKLQCRPFSWYLENIYPDSQIPRHYFSLGEIRNVETNQCLDNMARKENEKVGIFNCHGMGGNQVFSYTANKEIRTDDLCLDVSKLNGPVTMLKCHHLKGNQLWEYDPVKLTLQHVNSNQCLDKATDEDSQVPSIRDCSGSRSQQWLLRNVTLPEIF
[2]
  portion of total enzymatic activity retained inside the cells: 36%
  Total activity, cell lysate: 32.15 U
  Total activity, culture medium: 57.80 U
[2]; culture medium
  activity in medium relative to cells expressing the full length molecule: more than 35 times
[2]; vs uninfected cells
  increase in GalNAc-transferase activity in the culture medium: 130 fold

B4: GalNAcT 2-1.A: baculovirus isolate of the full length GalNAc-transferase gene (pAC373-GalNAcT) expressed in Sf9 cells (protein)
chain: MRKFAYCKVVLATSLIWVLLDMFLLLYFSECNKCDEKKERGLPAGDVLEPVQKPHEGPGEMGKPVVIPKEDQEKMKEMFKINQFNLMASEMIALNRSLPDVRLEGCKTKVYPDNLPTTSVVIVFHNEAWSTLLRTVHSVINRSPRHMLEEIVLVDDASERDFLKRPLESYVKKLKVPVHVIRMEQRSGLIRARLKGAAVSKGQVITFLDAHCECTVGWLEPLLARIKHDRKTVVCPIIDVISDDTFEYMAGSDMTYGGFNWKLNFRWYPVPQREMDRRKGDRTLPVRTPTMAGGLFSIDRDYFQEIGTYDAGMDIWGGENLEISFRIWQCGGTLEIVTCSHVGHVFRKATPYTFPGGTGQIINKNNRRLAEVWMDEFKNFFYIISPGVTKVDYGDISSRLGLRHKLQCRPFSWYLENIYPDSQIPRHYFSLGEIRNVETNQCLDNMARKENEKVGIFNCHGMGGNQVFSYTANKEIRTDDLCLDVSKLNGPVTMLKCHHLKGNQLWEYDPVKLTLQHVNSNQCLDKATDEDSQVPSIRDCSGSRSQQWLLRNVTLPEIF
[2]
  Total activity, cell lysate: 16.22 U
  Total activity, culture medium: 1.61 U
[3]
  Specific activity: 13.9 Units/mg protein
  Relative rate: 87

B5: GalNAcT 2-1.B: baculovirus isolate of the full length GalNAc-transferase gene (pAC373-GalNAcT) expressed in Sf9 cells (protein)
chain: MRKFAYCKVVLATSLIWVLLDMFLLLYFSECNKCDEKKERGLPAGDVLEPVQKPHEGPGEMGKPVVIPKEDQEKMKEMFKINQFNLMASEMIALNRSLPDVRLEGCKTKVYPDNLPTTSVVIVFHNEAWSTLLRTVHSVINRSPRHMLEEIVLVDDASERDFLKRPLESYVKKLKVPVHVIRMEQRSGLIRARLKGAAVSKGQVITFLDAHCECTVGWLEPLLARIKHDRKTVVCPIIDVISDDTFEYMAGSDMTYGGFNWKLNFRWYPVPQREMDRRKGDRTLPVRTPTMAGGLFSIDRDYFQEIGTYDAGMDIWGGENLEISFRIWQCGGTLEIVTCSHVGHVFRKATPYTFPGGTGQIINKNNRRLAEVWMDEFKNFFYIISPGVTKVDYGDISSRLGLRHKLQCRPFSWYLENIYPDSQIPRHYFSLGEIRNVETNQCLDNMARKENEKVGIFNCHGMGGNQVFSYTANKEIRTDDLCLDVSKLNGPVTMLKCHHLKGNQLWEYDPVKLTLQHVNSNQCLDKATDEDSQVPSIRDCSGSRSQQWLLRNVTLPEIF
[3]
  Specific activity: 11.9 Units/mg protein
  Relative rate: 74
